Measurements as given in US11648290B2, “Cartilage-homing peptides” (FRED HUTCHINSON CANCER CENTER, priority 2015, dated 2023).

Experiments:
[1] = test system: cartilage (IVD, knee / synovial joints); experiment: Whole body autoradiography (WBA) of radiolabeled cartilage homing peptides (Example 21); type: in vivo, Female Harlan athymic nude mice; conditions: for Signal in the intervertebral disc (IVD), Average: percentage of blood
Procedure: This example illustrates peptide homing to cartilage mice 5 minutes to 48 hours after administration of a radiolabeled peptide. Signal from the radiolabeled peptides was found in all types of cartilage at each time point examined. Each peptide was radiolabeled by methylating […] as described in EXAMPLE 2. As such, the peptide may contain methyl or dimethyl lysines and a methylated or dimethylated amino terminus. A dose of 100 nmol radiolabeled peptide was administered via tail vein injection in Female Harlan athymic nude mice, weighing 20-25 g. The experiment was done in duplicate (n=2 animals per group). In some animals, kidneys were ligated to prevent renal filtration of the radiolabeled peptides and extend plasma half-life. Each radiolabeled peptide was allowed to freely circulate within the animal for the described time period before the animals were euthanized and sectioned.
Whole body autoradiography (WBA) sagittal sectioning was performed as follows. […] Sections were allowed to desiccate in a freezer prior to imaging.
For the autoradiography imaging, tape mounted thin sections were freeze dried and radioactive samples were exposed to phophoimager plates for 7 days.

cartilage = conditions: 3 hours after administration; ligated kidneys; 14C-labelled peptide, tail vein
Procedure: This example describes a dosing scheme for administering knottin peptides to mice in conjunction with kidney ligation. Different dosages of the peptides were administered to Female Harlan athymic nude mice, weighing 20 g-25 g, via tail vein injection (n=2 mice per knottin). The experiment was done in duplicates. The kidneys were ligated to prevent renal filtration of the peptides. Each peptide was radiolabeled by methylating lysines and the N-terminus, so the actual binding agent may contain methyl or dimethyl lysine(s) and a methylated or dimethylated amino terminus.
A target dosage of 50-100 nmol of each peptide carrying 10-25 uCi of ^14C was administered to Female Harlan athymic nude mice while anesthetized. Each peptide was allowed to freely circulate within the animal before the animals were euthanized and sectioned.
This example illustrates peptide homing to cartilage of mice with kidneys that were ligated prior to peptide administration. At the end of the dosing period in EXAMPLE 3, mice were frozen in a hexane/dry ice bath and then frozen in a block of carboxymethylcellulose. […] Thin, frozen sections of animal including imaging of tissues such as brain, tumor, liver, kidney, lung, heart, spleen, pancreas, muscle, adipose, gall bladder, upper gastrointestinal tract, lower gastrointestinal tract, bone, bone marrow, reproductive track, eye, cartilage, stomach, skin, spinal cord, bladder, salivary gland, and other types of tissues were obtained with a microtome, allowed to desiccate in a freezer, and exposed to phosphoimager plates for about ten days.
These plates were developed, and the signal (densitometry) from each organ was normalized to the signal found in the heart blood of each animal. A signal in tissue darker than the signal expected from blood in that tissue indicates peptide accumulation in a region, tissue, structure or cell. For instance, the cartilage is avascular and contains minute amounts of blood. A ratio of at least 170% signal in the cartilage versus heart ventricle was chosen as a reference level for significant targeting to cartilage, which also correlated with clear accumulation in cartilaginous tissues in the images of the slices.
The SEQ ID NO: 24 peptide was radiolabeled as in Example 3 and 100 nmol of peptide was injected into a mouse with intact kidneys. FIG. 5 illustrates the retention of and the tissue distribution in the cartilage of a peptide of SEQ ID NO: 24, 24 hours after administration.

[2] = 3 hr after 100 nmol radiolabeled peptide
[3] = 24 hr after 100 nmol radiolabeled peptide

Substance | Cartilage homing (qualitative, WBA) ([1]; 100 nmol radiolabeled peptide) | Change of signal in IVD and joint cartilage between 3 and 24 hours ([1]; 100 nmol radiolabeled peptide) | Signal in the intervertebral disc (IVD), Average [1, 2] [%] | Signal in synovial joints as a percentage of signal in blood, Average [1, 3] [%] | Signal in the intervertebral disc (IVD), Average [1, 3] [%] | Cartilage (C): percentage of signal in the cartilage compared to the blood signal in the heart ventricle (cartilage) [%] | Muscle (M): signal compared to the level in the blood (cartilage) [%] | Rank of signal in cartilage among SEQ ID NO: 109, 200, 110, 114 ([1]; 100 nmol radiolabeled peptide) | Signal in synovial joints as a percentage of signal in blood, Average [1, 2] [%]
GSGDCLPHLRRCRENNDCCSRRCRRRGANPERRCR [SEQ ID NO: 200] | showed signal in cartilage and exhibited cartilage homing properties | maintained or increased | 1809 | 4991 | 3542 |  |  |  | 
23 (GSVRIPVSCKHSGQCLKPCKDAGMRFGKCMNGKCDCTPK) [compound 23] |  |  |  |  |  | 497 | 26 |  | 
483 (GSISIGIKCSPSIDLCEGQCRIRKYFTGYCSGDTCHCSG) [compound 483] |  |  |  |  |  | 67 | 24 |  | 
22 (GSSEKDCIKHLQRCRENKDCCSKKCSRRGTNPEKRCR) [compound 22] |  |  |  |  |  | 337 | 27 |  | 
24 (GSGVPINVKCRGSRDCLDPCKKAGMRFGKCINSKCHCTP) [compound 24] |  |  |  |  |  | 624 | 34 |  | 
198 (GSAVCNLKRCQLSCRSLGLLGKCIGDKCECVKHG) [compound 198] |  |  |  |  |  | 276 | 26 |  | 
485 (METDTLLLWVLLLWVPGSTG) [compound 485] |  |  |  |  |  | 92 | 21 |  | 
433 (GSKCLPPGKPCYGATQKIPCCGVCSHNNCT) [compound 433] |  |  |  |  |  | 156 | 20 |  | 
GSSERDCIRHLQRCRENRDCCSRRCSRRGTNPERRCR [SEQ ID NO: 109] | showed signal in cartilage and exhibited cartilage homing properties | maintained or increased | 2758 | 5097 | 4367 |  |  | highest signal in cartilage | 5627
25 (GSAVCVYRTCDKDCKRRGYRSGKCINNACKCYPYG) [compound 25] |  |  |  |  |  | 358 | 24 |  | 
GSVRIPVSCRHSGQCLRPCRDAGIVIRFGRCMNGRCDCTPR [SEQ ID NO: 110] | showed signal in cartilage and exhibited cartilage homing properties | decreased | 2374 | 981 | 1327 |  |  |  | 3142
GSQVQTNVRCQGGSCASVCRREIGVAAGRCINGRCVCYRN [SEQ ID NO: 114] | showed signal in cartilage and exhibited cartilage homing properties | reduced residence time with a signal near the limit of detection by 24 hours | 1075 |  | 191 |  |  |  | 1175
